The target of the series is T1, beta-lactoglobulin (bovine, UniProt P02754 17-178).
T1 sequence: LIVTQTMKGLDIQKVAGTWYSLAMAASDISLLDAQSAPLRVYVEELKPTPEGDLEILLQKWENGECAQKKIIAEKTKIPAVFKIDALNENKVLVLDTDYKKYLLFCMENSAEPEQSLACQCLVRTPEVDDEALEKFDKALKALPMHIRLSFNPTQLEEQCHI
Briefly: non-faradaic capacitive aptasensor; CDI-Cu nanoflower/LSG microgap; linear 1 ag/ml-100 fg/ml, LOD 1 ag/ml; Sensor: 10 mM PBS pH 7.4, target incubated 10 min; aptamer folded in 1 mM MgCl2, 10 mM PBS (90 °C 5 min); ELASA: coating at 4 °C overnight, 2% BSA block, PBS washes. The settings on record: protein: commercial; chain copies: 2; label: biotin; 3' A tail of aptamer paired with T20 oligolinker; aptamer part single-stranded.

B1: beta-lactoglobulin aptamer with 3' A tail, annealed to biotinylated T20 oligolinker (mixed)
DNA 1: ATACCAGCTTATTCAATTCGACGATCGGACCGCAGTACCCACCCACCAGCCCCAACATCATGCCCATCCGTGTGTGAGATAGTAAGTGCAATCTAAAAAAAAAAAAAAAAAAAAAAAA
DNA 2: TTTTTTTTTTTTTTTTTTTT
modifications: 5' biotin (5Biosg) on oligolinker S1
B1: the binding result is recorded as “binds”.
